Target: Thermoanaerobacter italicus TagA^FL∗ (residues M1-R244, I203E/L209Q/L212K/I216E), solubility-enhanced TagA (Thermoanaerobacter italicus)
Assay: AUC

Substance: Thermoanaerobacter italicus TagA^FL∗ (residues M1-R244, I203E/L209Q/L212K/I216E), solubility-enhanced TagA (enzyme)
- Kd: 210 µM
- stoichiometry N: 2

From paper PMC8784642
